Paper PMC9918544

Key:
FSFG_(52×12) Mutant 2 = assay: partitioning into the condensed FG phase (confocal laser scanning microscopy); FG particles of unlabelled FG domain in assay buffer (50 mM Tris/HCl, 5 mM DTT, 150 mM NaCl) mixed with fluorescent probe: 6 μM mCherry, 3 μM EGFP, 1 μM NTR or 1.5 μM NTR pre-incubated with 1 μM cargo; partition coefficient = signal in the centre of the particle / buffer; 21 °C
FSFG_(52×12) Mutant 1 = assay: as above

partition coefficient (FSFG_(52×12) Mutant 2): 2000 | partition coefficient (FSFG_(52×12) Mutant 1): 2000
Substance: NTF2 (Nuclear transport factor 2), coupled with Alexa488 (from UniProt P61970 1-127) (natural protein)
